Experimental findings from publication PMC4806929, “Two New Native β-Glucosidases from Clavispora NRRL Y-50464 Confer Its Dual Function as Cellobiose Fermenting Ethanologenic Yeast” (PLoS ONE, 2016) are described below.

The target in one data set is T1, BGL2 (Clavispora sp. NRRL Y-50464, UniProt A0A141S030).
T1 construct: C-terminal His tag, vector pPICZalphaA, expressed in Pichia X33; partially purified by Ni-NTA; GH3
T1 sequence (A0A141S030 1-804): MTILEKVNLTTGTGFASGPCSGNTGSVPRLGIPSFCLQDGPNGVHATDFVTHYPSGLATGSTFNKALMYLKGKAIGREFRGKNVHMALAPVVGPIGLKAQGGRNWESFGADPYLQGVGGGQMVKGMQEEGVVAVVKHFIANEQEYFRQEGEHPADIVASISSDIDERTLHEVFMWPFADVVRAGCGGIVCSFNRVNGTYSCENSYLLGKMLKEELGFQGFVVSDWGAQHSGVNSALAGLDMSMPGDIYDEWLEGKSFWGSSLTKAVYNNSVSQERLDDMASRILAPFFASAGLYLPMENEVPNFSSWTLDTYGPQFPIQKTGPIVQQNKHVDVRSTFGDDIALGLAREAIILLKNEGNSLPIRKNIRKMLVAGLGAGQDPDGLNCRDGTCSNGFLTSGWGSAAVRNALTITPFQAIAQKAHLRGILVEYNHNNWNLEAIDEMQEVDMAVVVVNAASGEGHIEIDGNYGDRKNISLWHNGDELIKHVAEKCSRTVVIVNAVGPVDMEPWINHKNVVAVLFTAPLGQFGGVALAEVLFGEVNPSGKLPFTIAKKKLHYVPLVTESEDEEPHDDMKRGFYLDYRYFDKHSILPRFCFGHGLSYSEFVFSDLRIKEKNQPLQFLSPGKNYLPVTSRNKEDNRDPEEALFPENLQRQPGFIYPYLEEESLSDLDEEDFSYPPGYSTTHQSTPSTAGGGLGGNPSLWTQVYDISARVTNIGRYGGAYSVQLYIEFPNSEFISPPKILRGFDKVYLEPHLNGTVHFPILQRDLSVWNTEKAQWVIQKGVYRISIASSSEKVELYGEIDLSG
Nature of the data set: pNPG hydrolysis, absorbance at […] nm. It is filed as biochemical. The note with it: product inhibition; substrate pNPG; 100 mM citrate buffer, optimal pH and temperature (pH 5, 50°C); read-out: K i (mM) (against glucose).

The next data set concerns the target T2, BGL3 (Clavispora sp. NRRL Y-50464, UniProt A0A141S029).
T2 construct: C-terminal His tag, vector pPICZalphaB, expressed in Pichia X33; partially purified by Ni-NTA; GH3
T2 sequence (A0A141S029 1-837): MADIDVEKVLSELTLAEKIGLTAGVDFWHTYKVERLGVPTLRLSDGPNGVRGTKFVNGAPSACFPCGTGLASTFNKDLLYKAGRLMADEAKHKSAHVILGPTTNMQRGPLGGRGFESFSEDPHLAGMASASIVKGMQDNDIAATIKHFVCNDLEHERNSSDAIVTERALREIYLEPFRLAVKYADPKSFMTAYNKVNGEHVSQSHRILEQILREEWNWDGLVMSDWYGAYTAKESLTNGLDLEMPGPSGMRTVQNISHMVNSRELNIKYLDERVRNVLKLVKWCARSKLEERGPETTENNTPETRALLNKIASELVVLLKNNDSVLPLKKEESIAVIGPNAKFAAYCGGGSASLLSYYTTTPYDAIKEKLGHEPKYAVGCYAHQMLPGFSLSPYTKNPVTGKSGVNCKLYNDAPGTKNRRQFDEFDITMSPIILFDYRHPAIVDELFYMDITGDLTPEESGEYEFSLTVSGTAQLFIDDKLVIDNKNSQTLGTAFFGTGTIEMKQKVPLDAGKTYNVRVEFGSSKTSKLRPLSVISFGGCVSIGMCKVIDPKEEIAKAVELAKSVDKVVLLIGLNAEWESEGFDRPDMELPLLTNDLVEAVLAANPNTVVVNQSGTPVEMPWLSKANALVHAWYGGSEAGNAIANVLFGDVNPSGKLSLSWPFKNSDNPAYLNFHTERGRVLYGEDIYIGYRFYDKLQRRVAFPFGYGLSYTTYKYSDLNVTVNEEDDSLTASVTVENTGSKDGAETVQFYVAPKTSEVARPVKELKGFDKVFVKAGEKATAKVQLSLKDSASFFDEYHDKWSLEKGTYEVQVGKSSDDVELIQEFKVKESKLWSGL
The data set is described as follows: pNPG hydrolysis, absorbance at […] nm. It is filed as biochemical. The note with it: product inhibition; substrate pNPG; 100 mM citrate buffer, optimal pH and temperature (pH 5, 55°C); read-out: K i (mM) (against glucose).

Substrate in the data set “purified protein”: O=[N+]([O-])c1ccc(O[C@@H]2O[C@H](CO)[C@@H](O)[C@H](O)[C@H]2O)cc1
The data set is described as follows: purified protein. The note with it: 100 mM citrate buffer.

Turning to `OC[C@H]1OC(O)[C@H](O)[C@@H](O)[C@@H]1O` (stereo partly shown) [glucose], the Ki on BGL2 is 62 ± 2.49 mM; at BGL3, 38.3 ± 1.15 mM.

B1: BGL2 (Clavispora sp. NRRL Y-50464) (protein)
chain: MTILEKVNLTTGTGFASGPCSGNTGSVPRLGIPSFCLQDGPNGVHATDFVTHYPSGLATGSTFNKALMYLKGKAIGREFRGKNVHMALAPVVGPIGLKAQGGRNWESFGADPYLQGVGGGQMVKGMQEEGVVAVVKHFIANEQEYFRQEGEHPADIVASISSDIDERTLHEVFMWPFADVVRAGCGGIVCSFNRVNGTYSCENSYLLGKMLKEELGFQGFVVSDWGAQHSGVNSALAGLDMSMPGDIYDEWLEGKSFWGSSLTKAVYNNSVSQERLDDMASRILAPFFASAGLYLPMENEVPNFSSWTLDTYGPQFPIQKTGPIVQQNKHVDVRSTFGDDIALGLAREAIILLKNEGNSLPIRKNIRKMLVAGLGAGQDPDGLNCRDGTCSNGFLTSGWGSAAVRNALTITPFQAIAQKAHLRGILVEYNHNNWNLEAIDEMQEVDMAVVVVNAASGEGHIEIDGNYGDRKNISLWHNGDELIKHVAEKCSRTVVIVNAVGPVDMEPWINHKNVVAVLFTAPLGQFGGVALAEVLFGEVNPSGKLPFTIAKKKLHYVPLVTESEDEEPHDDMKRGFYLDYRYFDKHSILPRFCFGHGLSYSEFVFSDLRIKEKNQPLQFLSPGKNYLPVTSRNKEDNRDPEEALFPENLQRQPGFIYPYLEEESLSDLDEEDFSYPPGYSTTHQSTPSTAGGGLGGNPSLWTQVYDISARVTNIGRYGGAYSVQLYIEFPNSEFISPPKILRGFDKVYLEPHLNGTVHFPILQRDLSVWNTEKAQWVIQKGVYRISIASSSEKVELYGEIDLSG
With B1, in the data set “purified protein”, the Michaelis constant (Km) turned out to be 80 ± 10 µM, the maximum rate (Vmax) came to 5.27 µmol/min/mg, the turnover number (kcat) stood at 9.13 s⁻¹ and the catalytic efficiency (kcat/Km) came to 114000 ± 1570 M⁻¹ s⁻¹.

B2: BGL3 (Clavispora sp. NRRL Y-50464) (protein)
chain: MADIDVEKVLSELTLAEKIGLTAGVDFWHTYKVERLGVPTLRLSDGPNGVRGTKFVNGAPSACFPCGTGLASTFNKDLLYKAGRLMADEAKHKSAHVILGPTTNMQRGPLGGRGFESFSEDPHLAGMASASIVKGMQDNDIAATIKHFVCNDLEHERNSSDAIVTERALREIYLEPFRLAVKYADPKSFMTAYNKVNGEHVSQSHRILEQILREEWNWDGLVMSDWYGAYTAKESLTNGLDLEMPGPSGMRTVQNISHMVNSRELNIKYLDERVRNVLKLVKWCARSKLEERGPETTENNTPETRALLNKIASELVVLLKNNDSVLPLKKEESIAVIGPNAKFAAYCGGGSASLLSYYTTTPYDAIKEKLGHEPKYAVGCYAHQMLPGFSLSPYTKNPVTGKSGVNCKLYNDAPGTKNRRQFDEFDITMSPIILFDYRHPAIVDELFYMDITGDLTPEESGEYEFSLTVSGTAQLFIDDKLVIDNKNSQTLGTAFFGTGTIEMKQKVPLDAGKTYNVRVEFGSSKTSKLRPLSVISFGGCVSIGMCKVIDPKEEIAKAVELAKSVDKVVLLIGLNAEWESEGFDRPDMELPLLTNDLVEAVLAANPNTVVVNQSGTPVEMPWLSKANALVHAWYGGSEAGNAIANVLFGDVNPSGKLSLSWPFKNSDNPAYLNFHTERGRVLYGEDIYIGYRFYDKLQRRVAFPFGYGLSYTTYKYSDLNVTVNEEDDSLTASVTVENTGSKDGAETVQFYVAPKTSEVARPVKELKGFDKVFVKAGEKATAKVQLSLKDSASFFDEYHDKWSLEKGTYEVQVGKSSDDVELIQEFKVKESKLWSGL
Turning to B2, in “purified protein”, the Michaelis-Menten constant (Km) was 180 ± 20 µM, the Vmax is 1.63 µmol/min/mg, the kcat is 1.4 s⁻¹ and the kcat/Km is 7710 M⁻¹ s⁻¹.
